Common to all, as to assay: SPR, antibody captured, C2 as analyte;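 also: biacore SPR at 37 °C, anti-C2 mAbs captured via goat anti-human IgG on CM5 chips, double-referenced sensorgrams fit to a 1:1 kinetic or steady-state model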
A general note: SPR reads the build-up and loss of mass on a sensor chip optically.

One assay deals with T1, human C2 D710A (human, UniProt P06681 21-752).
T1 sequence: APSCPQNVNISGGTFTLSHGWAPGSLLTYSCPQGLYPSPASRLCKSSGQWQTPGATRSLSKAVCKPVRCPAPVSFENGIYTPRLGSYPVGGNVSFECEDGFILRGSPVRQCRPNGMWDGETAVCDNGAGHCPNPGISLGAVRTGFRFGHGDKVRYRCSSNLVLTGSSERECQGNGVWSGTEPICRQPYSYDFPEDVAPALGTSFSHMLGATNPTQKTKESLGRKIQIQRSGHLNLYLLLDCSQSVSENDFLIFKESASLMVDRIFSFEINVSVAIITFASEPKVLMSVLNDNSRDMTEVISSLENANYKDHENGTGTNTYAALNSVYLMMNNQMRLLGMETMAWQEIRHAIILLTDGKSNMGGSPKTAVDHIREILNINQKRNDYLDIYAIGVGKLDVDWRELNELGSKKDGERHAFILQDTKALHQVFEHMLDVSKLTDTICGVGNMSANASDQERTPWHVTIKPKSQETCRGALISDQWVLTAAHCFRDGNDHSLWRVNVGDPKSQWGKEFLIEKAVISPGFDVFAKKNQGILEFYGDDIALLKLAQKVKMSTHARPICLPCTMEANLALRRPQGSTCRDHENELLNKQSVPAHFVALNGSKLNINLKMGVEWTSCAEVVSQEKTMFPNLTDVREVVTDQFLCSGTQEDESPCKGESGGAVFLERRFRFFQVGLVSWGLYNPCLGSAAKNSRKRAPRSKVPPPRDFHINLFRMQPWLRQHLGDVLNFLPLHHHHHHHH

A further assay has as its target T2, human C2 P724A (human, UniProt P06681 21-752).
T2 sequence: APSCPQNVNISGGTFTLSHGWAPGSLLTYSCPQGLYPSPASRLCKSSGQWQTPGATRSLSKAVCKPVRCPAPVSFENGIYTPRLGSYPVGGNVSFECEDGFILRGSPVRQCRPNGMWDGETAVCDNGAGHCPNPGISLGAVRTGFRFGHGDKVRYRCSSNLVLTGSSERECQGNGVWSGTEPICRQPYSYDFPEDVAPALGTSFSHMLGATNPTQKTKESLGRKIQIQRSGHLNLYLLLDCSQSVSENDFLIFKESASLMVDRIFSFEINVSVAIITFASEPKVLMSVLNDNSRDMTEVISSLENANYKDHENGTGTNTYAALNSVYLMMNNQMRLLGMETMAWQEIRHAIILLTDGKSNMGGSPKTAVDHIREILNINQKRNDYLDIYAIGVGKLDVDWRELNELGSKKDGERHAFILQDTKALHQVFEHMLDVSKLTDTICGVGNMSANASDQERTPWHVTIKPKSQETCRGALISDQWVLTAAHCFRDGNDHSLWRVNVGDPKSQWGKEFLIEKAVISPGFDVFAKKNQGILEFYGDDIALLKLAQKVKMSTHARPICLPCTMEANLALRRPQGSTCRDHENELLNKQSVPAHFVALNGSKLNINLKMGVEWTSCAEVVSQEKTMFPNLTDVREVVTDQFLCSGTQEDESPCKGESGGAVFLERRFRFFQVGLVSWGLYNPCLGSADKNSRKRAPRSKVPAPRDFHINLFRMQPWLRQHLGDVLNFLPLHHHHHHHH

Another assay concerns the target T3, human C2 N403A (human, UniProt P06681 21-752).
T3 sequence: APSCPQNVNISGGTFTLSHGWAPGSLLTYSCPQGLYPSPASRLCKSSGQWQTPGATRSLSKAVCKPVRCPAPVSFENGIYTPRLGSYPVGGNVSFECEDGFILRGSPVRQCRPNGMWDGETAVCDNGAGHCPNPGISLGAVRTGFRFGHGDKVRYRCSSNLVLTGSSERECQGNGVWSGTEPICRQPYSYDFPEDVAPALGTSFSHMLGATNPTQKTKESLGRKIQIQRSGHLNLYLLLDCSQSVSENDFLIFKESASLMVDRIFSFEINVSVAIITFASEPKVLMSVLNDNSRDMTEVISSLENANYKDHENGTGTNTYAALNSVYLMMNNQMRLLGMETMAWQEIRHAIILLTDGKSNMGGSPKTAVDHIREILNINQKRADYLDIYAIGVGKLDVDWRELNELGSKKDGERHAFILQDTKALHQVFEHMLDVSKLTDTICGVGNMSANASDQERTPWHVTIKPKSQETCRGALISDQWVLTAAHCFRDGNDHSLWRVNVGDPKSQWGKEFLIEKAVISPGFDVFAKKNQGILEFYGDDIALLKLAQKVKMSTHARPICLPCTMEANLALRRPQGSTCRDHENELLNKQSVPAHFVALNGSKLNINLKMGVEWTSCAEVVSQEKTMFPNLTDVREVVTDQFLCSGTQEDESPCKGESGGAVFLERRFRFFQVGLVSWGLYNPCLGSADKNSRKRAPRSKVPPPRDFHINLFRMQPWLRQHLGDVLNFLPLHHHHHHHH

The next assay has as its target T4, human C2 R510A (human, UniProt P06681 21-752).
T4 sequence: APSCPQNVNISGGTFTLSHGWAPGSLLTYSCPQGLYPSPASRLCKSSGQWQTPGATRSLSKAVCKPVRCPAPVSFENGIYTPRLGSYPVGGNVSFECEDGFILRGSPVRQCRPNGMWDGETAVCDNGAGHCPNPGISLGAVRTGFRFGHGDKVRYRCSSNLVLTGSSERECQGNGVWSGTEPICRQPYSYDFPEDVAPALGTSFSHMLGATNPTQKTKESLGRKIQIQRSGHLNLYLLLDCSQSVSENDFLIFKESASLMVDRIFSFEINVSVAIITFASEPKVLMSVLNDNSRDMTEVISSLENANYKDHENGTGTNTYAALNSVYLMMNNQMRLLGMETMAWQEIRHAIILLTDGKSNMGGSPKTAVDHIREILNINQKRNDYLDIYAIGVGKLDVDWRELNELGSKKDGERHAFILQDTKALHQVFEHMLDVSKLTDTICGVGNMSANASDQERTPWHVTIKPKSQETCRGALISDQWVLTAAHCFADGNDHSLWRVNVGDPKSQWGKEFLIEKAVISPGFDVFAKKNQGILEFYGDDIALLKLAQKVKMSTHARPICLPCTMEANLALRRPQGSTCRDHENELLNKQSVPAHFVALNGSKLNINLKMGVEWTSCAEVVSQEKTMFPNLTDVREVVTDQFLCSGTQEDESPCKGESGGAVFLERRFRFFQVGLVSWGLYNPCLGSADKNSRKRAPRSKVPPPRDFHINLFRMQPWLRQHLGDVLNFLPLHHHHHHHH

The values that follow come from patent US20220332804A1 (CSL INNOVATION, published 2022).

As a reminder, the Kd is the equilibrium constant for the complex coming apart.

B1: RF16-226 (antibody, human IgG4 S228P, lambda)
heavy: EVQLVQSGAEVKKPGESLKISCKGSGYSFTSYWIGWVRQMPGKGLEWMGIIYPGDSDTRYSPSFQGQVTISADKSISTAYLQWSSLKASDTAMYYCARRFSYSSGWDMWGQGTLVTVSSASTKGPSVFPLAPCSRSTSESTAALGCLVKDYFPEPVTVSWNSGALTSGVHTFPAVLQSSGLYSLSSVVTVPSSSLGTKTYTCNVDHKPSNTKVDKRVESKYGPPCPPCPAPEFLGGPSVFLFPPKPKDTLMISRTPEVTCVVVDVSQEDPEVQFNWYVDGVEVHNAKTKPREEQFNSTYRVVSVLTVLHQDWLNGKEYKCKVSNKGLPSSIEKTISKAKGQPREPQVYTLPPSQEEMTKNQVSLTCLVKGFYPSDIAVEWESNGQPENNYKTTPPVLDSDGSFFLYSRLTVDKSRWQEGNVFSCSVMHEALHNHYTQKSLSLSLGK
light: SYELTQPPSVSVSPGQTARITCSGDALTSKYVAWYQQKSGLAPLLVIYEDTRRPSGIPAKFSGSSSGSVATLTISGAHGDDEADYYCYSTDASGHQRVFGGGTKLTVLSQPKAAPSVTLFPPSSEELQANKATLVCLISDFYPGAVTVAWKADGSPVKAGVETTKPSKQSNNKYAASSYLSLTPEQWKSHRSYSCQVTHEGSTVEKTVAPTECS
notes: pH-dependent anti-C2 antibody from a phage display library; also called WT
Consider B1, for which the Kd came to 97.4 nM in the assay with human C2 D710A, 397 nM with human C2 P724A, 10.5 nM with human C2 N403A and 110 nM in the assay with human C2 R510A.
